B3: complex I subunit B14.7 (natural protein, UniProt O48528 1-159, looked up)
chain: MDPAEMRYLEEEDGPLMKTIKGSITGFGAGTIYGTILATWKDVPRVERNVALPGLIRTLKMMGTHGLTFAAIGGVYIGVEQLVQNFRSKRDFYNGAIGGFVAGASVLGYRARSIPTAIAAGATLAVTSALIDSGGQTTRVDNGREYYPYTVEKRAEADS
notes: subunit B14.7 of Arabidopsis thaliana mitochondrial complex I (membrane arm); absent from the earlier structures of free plant complex I; also called B14.7 kDa subunit

For assay [1], the target named is T1, complex I, FMN / NADH site (51 kDa subunit), in the I + III2 supercomplex (Arabidopsis thaliana, UniProt Q9FNN5).
T1 construct: gene At5g08530; native supercomplex; tested as whole I + III2 assembly of 68 subunits
T1 sequence (Q9FNN5 31-486): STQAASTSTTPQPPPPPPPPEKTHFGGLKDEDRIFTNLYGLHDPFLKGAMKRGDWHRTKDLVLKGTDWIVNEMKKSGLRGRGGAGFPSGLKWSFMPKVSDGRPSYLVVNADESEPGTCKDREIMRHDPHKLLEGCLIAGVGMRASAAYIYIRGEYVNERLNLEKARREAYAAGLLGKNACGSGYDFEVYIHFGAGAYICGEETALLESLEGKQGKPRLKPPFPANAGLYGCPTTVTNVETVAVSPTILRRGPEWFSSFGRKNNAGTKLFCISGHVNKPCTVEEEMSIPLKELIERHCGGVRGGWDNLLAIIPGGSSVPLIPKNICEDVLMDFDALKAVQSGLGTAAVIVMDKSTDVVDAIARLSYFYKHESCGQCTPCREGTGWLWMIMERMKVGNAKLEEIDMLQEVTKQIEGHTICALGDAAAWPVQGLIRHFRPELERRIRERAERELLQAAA
In words: cryo-EM structure, […] Å. Type of assay: binding. Conditions: co-purified.

Assay [2] has as its target T2, mitochondrial processing peptidase subunit MPP-α-1 of complex III (Arabidopsis thaliana (endogenous in …, UniProt Q9ZU25 60-503)).
T2 construct: MPP-α, isoform 1 (the dominant isoform, fitted to the map), subunit of Arabidopsis thaliana complex III
T2 sequence (looked up): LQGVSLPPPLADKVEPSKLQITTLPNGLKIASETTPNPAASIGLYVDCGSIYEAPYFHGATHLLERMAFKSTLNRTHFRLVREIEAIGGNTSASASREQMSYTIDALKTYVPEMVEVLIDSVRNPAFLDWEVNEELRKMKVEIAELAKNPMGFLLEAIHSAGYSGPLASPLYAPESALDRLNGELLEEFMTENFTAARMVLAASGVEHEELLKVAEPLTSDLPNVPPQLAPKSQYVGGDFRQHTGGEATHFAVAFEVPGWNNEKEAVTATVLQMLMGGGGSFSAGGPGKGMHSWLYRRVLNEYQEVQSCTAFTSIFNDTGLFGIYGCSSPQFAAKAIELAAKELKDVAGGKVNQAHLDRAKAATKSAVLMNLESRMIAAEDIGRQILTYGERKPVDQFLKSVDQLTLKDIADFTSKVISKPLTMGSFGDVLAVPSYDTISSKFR
In words: cryo-EM structure; native I + III2 supercomplex isolated from digitonin-solubilised Arabidopsis mitochondria (sucrose gradient, Superose 6 in GDN); 30 mM Tris-HCl pH 7.4, 60 mM NaCl, 0.02% GDN; 2.36 Å for the whole supercomplex, 2.03 Å after multibody refinement, 1.9 Å after density modification. Conditions: both partners purified.

Assay [3] addresses T3, mitochondrial processing peptidase subunit MPP-β of complex III (Arabidopsis thaliana (endogenous in …, UniProt Q42290 79-531)).
T3 construct: MPP-β, subunit of Arabidopsis thaliana complex III
T3 sequence (looked up): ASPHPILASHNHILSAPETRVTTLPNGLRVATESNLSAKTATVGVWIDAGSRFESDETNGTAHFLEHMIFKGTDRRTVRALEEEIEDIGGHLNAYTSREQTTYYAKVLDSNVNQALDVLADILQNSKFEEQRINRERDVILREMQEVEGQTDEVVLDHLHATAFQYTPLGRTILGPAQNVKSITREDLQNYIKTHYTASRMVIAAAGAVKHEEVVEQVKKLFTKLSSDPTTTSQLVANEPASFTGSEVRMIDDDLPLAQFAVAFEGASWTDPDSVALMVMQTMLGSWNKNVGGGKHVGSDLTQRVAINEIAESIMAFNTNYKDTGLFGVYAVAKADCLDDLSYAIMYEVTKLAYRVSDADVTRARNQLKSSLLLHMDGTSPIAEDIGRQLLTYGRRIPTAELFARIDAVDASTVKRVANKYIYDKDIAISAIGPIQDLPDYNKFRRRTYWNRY
The description is as above. To be noted: both partners purified.

The assay “complex I subunit B14.7” deals with B3. Described as above. Conditions: both partners purified.
Assay [4] deals with T4, complex I core subunit ND5 (Arabidopsis thaliana (endogenous in …, UniProt P29388 1-669)).
T4 sequence (looked up): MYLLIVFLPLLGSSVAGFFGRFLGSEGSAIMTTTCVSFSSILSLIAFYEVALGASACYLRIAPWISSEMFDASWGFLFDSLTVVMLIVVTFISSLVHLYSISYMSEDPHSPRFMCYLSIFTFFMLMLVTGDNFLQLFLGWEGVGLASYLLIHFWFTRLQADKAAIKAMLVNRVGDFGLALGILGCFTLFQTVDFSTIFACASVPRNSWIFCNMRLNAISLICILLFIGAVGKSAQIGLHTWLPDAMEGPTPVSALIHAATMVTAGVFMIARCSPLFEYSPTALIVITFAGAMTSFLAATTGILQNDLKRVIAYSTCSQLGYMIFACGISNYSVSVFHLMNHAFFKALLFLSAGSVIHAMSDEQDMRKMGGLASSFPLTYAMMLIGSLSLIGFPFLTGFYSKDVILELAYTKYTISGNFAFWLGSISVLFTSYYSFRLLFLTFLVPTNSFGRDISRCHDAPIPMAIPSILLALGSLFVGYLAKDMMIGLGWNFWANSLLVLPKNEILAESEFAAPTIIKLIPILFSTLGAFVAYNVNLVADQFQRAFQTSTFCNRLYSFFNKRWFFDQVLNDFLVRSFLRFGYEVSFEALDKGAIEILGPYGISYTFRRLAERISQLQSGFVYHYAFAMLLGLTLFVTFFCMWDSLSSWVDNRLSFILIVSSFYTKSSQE
The description is as above. Conditions: both partners purified.

Regarding `Cc1cc2nc3c(=O)[nH]c(=O)nc-3n(C[C@H](O)[C@H](O)[C@H](O)COP(=O)(O)O)c2cc1C` [FMN], the “cryo-EM structure, 2 Å” value in assay [1] is “Complex I: FMN (Flavin mononucleotide), N1a, N1b, N2, N3”.

B1: complex I subunit B22 (natural protein, UniProt Q945M1 1-117, looked up)
chain: MSGVSTAAYFARRAAQKERVRILYRRALKDTLNWAVHRHIFYRDASDLREKFNVNQDVEDVDRIDKLIAHGEAEYNKWRHPDPYIVPWAPGGSKFCRNPTPPAGIEIVYNYGLEDNP
notes: accessory subunit B22 of Arabidopsis thaliana mitochondrial complex I (membrane arm)
Take B1: the binding result in assay [2] and in assay [3] was “binds” throughout.

B2: complex III subunit QCR6-1 (natural protein, UniProt Q0WWE3 1-69, looked up)
chain: MADDEVVDPKKYLEESCKPKCVKPLLEYQACVKRIQGDDSGHKHCTGQYFDYWQCIDKCVAPKLFAKLK
notes: QCR6, isoform 1 (the dominant isoform, fitted to the map), accessory subunit of Arabidopsis thaliana complex III
Regarding B2, the binding result with complex I subunit B14.7 was “binds”. Take B3: in assay [4], the binding result is recorded as “binds”.

B4: complex III subunit QCR8-1 (natural protein, UniProt Q9SG91 1-72, looked up)
chain: MGKQPVKLKAVVYALSPFQQKIMTGLWKDLPEKIHHKVSENWISATLLVTPVVGTYWYAQYFKEQEKLEHRF
notes: QCR8, isoform 1 (the dominant isoform, fitted to the map), accessory subunit of Arabidopsis thaliana complex III
Consider B4, for which the binding result with complex I subunit B14.7 is given as “binds”.

The record behind these values is article PMC9873573, “Cryo-EM structure of the respiratory I + III2 supercomplex from Arabidopsis thaliana at 2 Å resolution” (Nature Plants, 2022).
